In patent publication US20260139007A1 (SANFORD BURNHAM PREBYS MEDICAL DISCOVERY INSTITUTE, published 2026):
Bridge positions count the residues as written; N and C are the ends. Square brackets hold non-standard residues; d marks the D form. Ends that are not written are not given here. βAla = NCCC(=O)O

Tests used:
[1] = target: T1, EphA4 Fc (human EphA4 Fc, #CJ75, Novoprotein, or mouse EphA4 Fc, #641-A4, R&D Systems/BioTechne) (human or mouse, UniProt P54764 20-547); assay: competition ELISA, inhibition of ephrin-A5 AP binding to immobilized EphA4 Fc
T1 construct: extracellular domain; bought reagents; also called EphA4 extracellular domain fused to the Fc portion of an antibody; not shown: Fc portion of an antibody
T1 sequence (P54764 20-547): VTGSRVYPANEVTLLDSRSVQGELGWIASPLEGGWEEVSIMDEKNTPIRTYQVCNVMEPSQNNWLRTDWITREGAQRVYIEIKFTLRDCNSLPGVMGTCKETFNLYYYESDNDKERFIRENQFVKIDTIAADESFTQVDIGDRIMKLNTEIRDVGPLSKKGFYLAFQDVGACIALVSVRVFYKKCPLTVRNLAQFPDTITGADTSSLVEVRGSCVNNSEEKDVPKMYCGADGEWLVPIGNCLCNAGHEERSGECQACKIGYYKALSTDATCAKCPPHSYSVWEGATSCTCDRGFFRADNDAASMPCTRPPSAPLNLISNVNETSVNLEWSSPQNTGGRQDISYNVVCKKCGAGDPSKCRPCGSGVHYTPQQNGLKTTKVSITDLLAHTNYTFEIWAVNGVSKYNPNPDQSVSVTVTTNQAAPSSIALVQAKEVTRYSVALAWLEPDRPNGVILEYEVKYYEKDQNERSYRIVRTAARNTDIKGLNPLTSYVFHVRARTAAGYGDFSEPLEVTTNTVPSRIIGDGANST

[2] = target: T1, EphA4 Fc (human EphA4 Fc, #CJ75, …); assay: competition ELISA, ephrin-A5 AP on immobilized EphA4 Fc, with and without 20 mg/mL BSA
[3] = target: T1, EphA4 Fc (human EphA4 Fc, #CJ75, …); assay: competition ELISA, inhibition of ephrin-A5 AP binding to immobilized EphA4 Fc, with 20 mg/ml BSA

B1: compound 21 (peptide)
peptide: [βAla]PYCVYR[βAla]SWSCRLIEDICLPRWGCLWEDD-NH2
modifications: disulfide 4-12, 19-25; N-terminus assumed
SMILES: CC[C@H](C)[C@H](NC(=O)[C@H](CC(C)C)NC(=O)[C@H](CCCNC(=N)N)NC(=O)[C@@H]1CSSC[C@H](NC(=O)[C@H](Cc2ccc(O)cc2)NC(=O)[C@@H]2CCCN2C(=O)CCN)C(=O)N[C@@H](C(C)C)C(=O)N[C@@H](Cc2ccc(O)cc2)C(=O)N[C@@H](CCCNC(=N)N)C(=O)NCCC(=O)N[C@@H](CO)C(=O)N[C@@H](Cc2c[nH]c3ccccc23)C(=O)N[C@@H](CO)C(=O)N1)C(=O)N[C@@H](CCC(=O)O)C(=O)N[C@@H](CC(=O)O)C(=O)N[C@H](C(=O)N[C@H]1CSSC[C@@H](C(=O)N[C@@H](CC(C)C)C(=O)N[C@@H](Cc2c[nH]c3ccccc23)C(=O)N[C@@H](CCC(=O)O)C(=O)N[C@@H](CC(=O)O)C(=O)N[C@@H](CC(=O)O)C(N)=O)NC(=O)CNC(=O)[C@H](Cc2c[nH]c3ccccc23)NC(=O)[C@H](CCCNC(=N)N)NC(=O)[C@@H]2CCCN2C(=O)[C@H](CC(C)C)NC1=O)[C@@H](C)CC
notes: also called peptide 21
IC50 [1]: 18 nM | fold decrease in potency with BSA against buffer [2]: ~8 fold | IC50 [3]: 130 nM
